Data set [1] has as its system Arabidopsis thaliana T1 plants. Briefly: Isoxaflutole tolerance of transgenic Arabidopsis thaliana T1 plants (spray, bleached leaf area grade, damage score).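 For Scores: Weighted damage index from 0 to 100 where higher means more damage.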 The settings on record: Table 11; for Classification and statistics of the grade of pesticide damage Grade 0: number of plants at grade 0; for Classification and statistics of the grade of pesticide damage Grade 1: number of plants at grade 1; for Classification and statistics of the grade of pesticide damage Grade 2: number of plants at grade 2; for Classification and statistics of the grade of pesticide damage Grade 3: number of plants at grade 3; for Scores: pesticide damage score. It is filed as in vivo. A digest of the protocol:
(§1)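 Read-out: per-plant damage grade 0–3 from proportion of bleached leaf area at 7 DAT (1 <50%, 2 >50%, 3 100%). Plants were T1 transformants, glufosinate-selected, plus wild-type CK, sprayed 18 days post-sowing. Rates: topramezone 25–200, isoxaflutole 35–280, mesotrione 52.5–420 g ai/ha.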

Data set [2] has as its system Arabidopsis thaliana T1 plants. As to the kind of experiment: Mesotrione tolerance of transgenic Arabidopsis thaliana T1 plants (spray, bleached leaf area grade, damage score). The settings on record: Table 12; for Classification and statistics of the grade of pesticide damage Grade 0: number of plants at grade 0; for Classification and statistics of the grade of pesticide damage Grade 1: number of plants at grade 1; for Classification and statistics of the grade of pesticide damage Grade 2: number of plants at grade 2; for Classification and statistics of the grade of pesticide damage Grade 3: number of plants at grade 3; for Scores: pesticide damage score. On the set-up: Scores: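 damage score 0-100 computed as Σ(N×S)/(T×M)×100 over grades 0-3 with higher meaning more damage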. The data set is classed as in vivo. The gist of the method:
as §1

B1: AsHPPDm-A111T-F383W-02: nucleotide sequence encoding Avena sativa HPPD with A111T+F383W; vector DBN11782 (nucleic acid)
DNA: ATGCCACCTACTCCAGCTACAGCTACTGGTGCTGCTGCTGCTGCCGTTACTCCTGAGCACGCTGCCAGGTCATTCCCCAGGGTGGTTCGCGTGAACCCCAGATCTGATAGGTTCCCAGTTCTGAGCTTCCACCATGTTGAGCTGTGGTGCGCTGATGCTGCTTCTGCTGCTGGCAGGTTCTCTTTCGCTCTTGGTGCTCCACTCGCTGCTAGATCTGATCTGTCTACAGGAAATAGCGCTCATGCCTCACTCCTGCTTCGCTCAGGTGCTTTGGCCTTCCTCTTCACCGCTCCATATGCTCCCCCACCTCAGGAGGCTGCTACTGCTGCTACTACAGCCTCCATTCCAAGCTTCTCAGCTGATGCCGCTAGAACCTTCGCTGCTGCTCATGGACTTGCCGTGAGGTCTGTTGGTGTTCGCGTGGCTGATGCTGCTGAGGCTTTCAGAGTTTCCGTTGCCGGCGGAGCTAGGCCAGCTTTCGCTCCTGCTGATTTGGGACATGGTTTCGGCCTGGCTGAGGTTGAGCTTTACGGTGACGTGGTTCTCCGCTTCGTGTCTTACCCAGATGAGACTGACCTGCCTTTCCTTCCCGGCTTCGAGAGAGTTTCCTCTCCTGGTGCCGTGGATTACGGCCTGACAAGGTTCGACCACGTGGTTGGAAACGTTCCCGAGATGGCTCCAGTGATCGATTACATGAAGGGCTTCCTTGGATTCCATGAGTTCGCCGAGTTCACTGCTGAGGACGTGGGAACCACTGAGTCCGGTTTGAACTCTGTGGTTCTCGCCAACAATTCTGAGGCTGTTTTGCTCCCTCTGAATGAGCCTGTGCATGGAACCAAGAGGAGAAGCCAGATTCAAACTTACCTGGAGTACCACGGTGGCCCTGGAGTTCAGCATATCGCCCTTGCTTCTAATGATGTGTTGCGCACACTCAGAGAGATGCGCGCCAGAACCCCCATGGGAGGTTTCGAGTTCATGGCCCCACCACAGGCTAAGTACTACGAGGGCGTTAGAAGGATTGCTGGAGACGTGTTGAGCGAGGAGCAGATCAAGGAGTGCCAAGAGCTGGGTGTTCTTGTGGATAGGGATGACCAGGGCGTTCTGCTTCAAATTTTCACTAAGCCAGTGGGCGACCGCCCTACATTCTGGCTTGAGATGATTCAAAGAATCGGCTGCATGGAGAAGGATGAGGTTGGACAGGAGTACCAAAAGGGCGGATGCGGTGGCTTCGGAAAGGGTAACTTCAGCGAGTTGTTCAAGTCAATCGAGGACTACGAGAAGAGCCTCGAGGTGAAGCAGTCAGTGGTTGCCCAAAAGTCCTGA
modifications: AsHPPDm-A111T-F383W-02 Nucleotide Sequence
notes: vector DBN11782
As to B1, in data set [1] (isoxaflutole 140 g ai/ha (2×)), the Resistance evaluation result is “Moderately”; the “Classification and statistics of the grade of pesticide damage Grade 0” value is reported as 6; the “Classification and statistics of the grade of pesticide damage Grade 1” value is 8; the “Classification and statistics of the grade of pesticide damage Grade 2” value was 2. Also, in data set [1] (isoxaflutole 140 g ai/ha (2×)), the “Classification and statistics of the grade of pesticide damage Grade 3” value is 0; the Scores stood at 25. In addition, in data set [1] (isoxaflutole 280 g ai/ha (4×)), the Resistance evaluation result is “Poorly resistant”; the “Classification and statistics of the grade of pesticide damage Grade 0” value came to 4; the “Classification and statistics of the grade of pesticide damage Grade 1” value was determined as 4; the “Classification and statistics of the grade of pesticide damage Grade 2” value amounted to 8. Besides, in data set [1] (isoxaflutole 280 g ai/ha (4×)), the “Classification and statistics of the grade of pesticide damage Grade 3” value is 0; the Scores amounted to 42. In data set [2] (mesotrione 210 g ai/ha (2×)), the Resistance evaluation entry is listed as “Moderately”; the “Classification and statistics of the grade of pesticide damage Grade 0” value was 4; the “Classification and statistics of the grade of pesticide damage Grade 1” value stood at 10; the “Classification and statistics of the grade of pesticide damage Grade 2” value was 2. Further, in data set [2] (mesotrione 210 g ai/ha (2×)), the “Classification and statistics of the grade of pesticide damage Grade 3” value was 0; the Scores is recorded as 29. Besides, in data set [2] (mesotrione 420 g ai/ha (4×)), the Resistance evaluation result is “Poorly resistant”; the “Classification and statistics of the grade of pesticide damage Grade 0” value was found to be 0; the “Classification and statistics of the grade of pesticide damage Grade 1” value was 2; the “Classification and statistics of the grade of pesticide damage Grade 2” value was found to be 13. In data set [2] (mesotrione 420 g ai/ha (4×)), the “Classification and statistics of the grade of pesticide damage Grade 3” value is recorded as 1; the Scores is reported as 65.

(Values after patent US20250043302A1, “MUTATED HYDROXYPHENYLPYRUVATE DIOXYGENASE POLYPEPTIDE, AND CODING GENE AND USE THEREOF” (BEIJING DABEINONG BIOTECHNOLOGY CO., LTD., priority 2021, published 2025).)
